# Reference: paper PMC3474761
# Tested on: Hfq (His-tagged) (Burkholderia cenocepacia J2315?)
# Assay: EMSA
# Conditions: RNA binding buffer (composition in cited ref. 21), 25 ul, 30 min at 25 C, salt and pH not stated
substance,measurement,setting,value
h2cR sRNA (136 nt),Kd,"apparent Kd, 2.5 nM RNA, 0-10 nM Hfq6, excess yeast tRNA, excess unlabelled yeast …",1.5 nM
hfq2 5'-UTR (216 nt),Kd,excess unlabelled yeast tRNA,9.5 nM
